Experimental data from the supplement of paper PMC10567573.

B1: FCHSD1 (parent)
chain: LQEPGVFSPTPPQQFQPAGTDQVC
B2: MMP1 (parent)
chain: FVRGDHRDNSPFDGPGGNLAHAFQ

Variants of: B1
Assay: protein stability index of a GFP-peptide fusion (GPS, HEK-293T) (PSI 1-6); higher = more stable
Conditions: c terminus: a fixed tail appended
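Also: lentivirally expressed fusions sorted by FACS into six bins by GFP to DsRed ratio, PSI derived from sequencing read proportions per bin multiplied by bin number.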

Protein stability index of substitutions, site by site:
P9: Y 3.81; H 4.29; W 3.67; A 4.57; L 4.56; D 4.69; M 4.38; N 4.04; E 4.7; Q 4.65; G 4.38; C 4.26; R 4.26; V 4.3; I 4.03; T 4.69; S 4.14; F 4.14; K 4.31
Q14: V 4.1; G 2.86
A18: W 2.99
T10: V 3.96; I 3.65; Y 3.38; S 4.34; C 3.52; R 3.54; W 3.35; M 3.82; D 4.67; N 3.98; E 4.38; Q 4.21; H 4.17; F 3.5; K 4; L 4.16; A 4.56; G 4.16
Q13: Y 3.74; K 3.78; S 4.16; G 3.89; D 4.55; R 4.07; V 4.26; W 3.17; M 3.96; N 4.11; C 4.04; I 3.6; E 3.75; F 3.8
Q22: W 2.94
P11: Q 4.26; K 3.62; M 4.17; L 3.89; F 3.49; R 3.9; I 4.04; G 4.25; E 4.69; T 4.31; Y 3.65; W 3.41; C 2.16; A 4.41; S 3.73; D 4.5; N 4.38; V 4.43; H 4.09
Q16: L 3.93
F15: C 4.17; G 4.68
P12: G 4.5; N 4.33; L 3.96; R 4.33; C 4.02; H 4.23; M 4.09; S 4.46; W 3.5; V 3.69; K 4.05; Q 4.45; E 4.82; I 4.11; D 5.07; Y 3.66; F 3.48
T20: L 3.61

Variants of: B2
Assay: as above
Conditions: c terminus: a fixed tail appended

Protein stability index: each site, then its substitutions
F1: L 3.52; Q 4.01; N 3.66; I 2.82; H 3.28; D 4.41; T 3.78; C 2.64; M 3.32; W 2.48; G 3.33; A 3.67; P 3.59; V 2.83; E 3.97; R 3.36; Y 1.81; K 3.56; S 3.33
V2: H 2.37; T 3.07; K 3.1; P 2.85; F 2.61; E 3.97; S 2.76; W 2.25; M 3.03; N 3.53; C 1.63; I 1.92; G 3.03; Q 2.75; A 1.66; Y 3.15; L 3.03; D 3.58; R 3.48
G4: A 2; K 1.57; H 2.26; I 1.64; E 1.76; D 3.02; C 2.67; F 2.06; T 2.52; Q 2.42; N 2.04; L 1.68; R 1.56; P 1.73; S 2.41
R3: S 1.99; F 1.69; M 1.57; A 1.63; N 2.34; P 1.44; H 1.85; W 1.86; Y 1.93; Q 1.71; L 2.13; I 2.11; E 2.73; V 2.37; D 1.73; G 1.3; K 1.45; T 2.13; C 3.82
